# Biological target: mouse FGFR4/β-klotho complex co-expressed in rat L6 myoblast cells (mouse, UniProt Q03142 17-799; Q99N32 1-1043)
# Experiment: cell-based or functional assay
# Chain of mouse FGFR4/β-klotho complex co-expressed in rat L6 myoblast cells (Q03142 17-799, chain 1 of 2): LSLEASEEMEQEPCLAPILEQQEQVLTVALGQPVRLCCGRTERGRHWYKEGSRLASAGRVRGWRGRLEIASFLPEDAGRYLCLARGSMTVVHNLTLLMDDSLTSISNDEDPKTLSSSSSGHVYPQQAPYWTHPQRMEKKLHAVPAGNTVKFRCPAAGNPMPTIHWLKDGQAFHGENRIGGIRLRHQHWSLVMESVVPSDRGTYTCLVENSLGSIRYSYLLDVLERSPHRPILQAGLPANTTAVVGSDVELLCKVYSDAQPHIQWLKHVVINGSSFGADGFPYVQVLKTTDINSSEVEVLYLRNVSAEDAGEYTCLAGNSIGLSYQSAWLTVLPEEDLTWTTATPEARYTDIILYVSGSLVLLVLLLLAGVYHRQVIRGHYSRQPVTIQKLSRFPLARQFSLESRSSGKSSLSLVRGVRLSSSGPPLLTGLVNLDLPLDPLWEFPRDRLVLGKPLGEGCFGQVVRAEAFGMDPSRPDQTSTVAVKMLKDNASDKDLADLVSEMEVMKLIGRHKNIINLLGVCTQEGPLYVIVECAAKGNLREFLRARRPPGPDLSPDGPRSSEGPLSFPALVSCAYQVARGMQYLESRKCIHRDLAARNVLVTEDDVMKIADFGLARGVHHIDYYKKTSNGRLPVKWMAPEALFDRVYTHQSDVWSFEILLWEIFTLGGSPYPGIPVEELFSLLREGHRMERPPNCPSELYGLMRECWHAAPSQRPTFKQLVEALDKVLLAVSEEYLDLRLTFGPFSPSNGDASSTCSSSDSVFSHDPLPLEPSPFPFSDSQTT
# Chain of mouse FGFR4/β-klotho complex co-expressed in rat L6 myoblast cells (Q99N32 whole entry, chain 2 of 2): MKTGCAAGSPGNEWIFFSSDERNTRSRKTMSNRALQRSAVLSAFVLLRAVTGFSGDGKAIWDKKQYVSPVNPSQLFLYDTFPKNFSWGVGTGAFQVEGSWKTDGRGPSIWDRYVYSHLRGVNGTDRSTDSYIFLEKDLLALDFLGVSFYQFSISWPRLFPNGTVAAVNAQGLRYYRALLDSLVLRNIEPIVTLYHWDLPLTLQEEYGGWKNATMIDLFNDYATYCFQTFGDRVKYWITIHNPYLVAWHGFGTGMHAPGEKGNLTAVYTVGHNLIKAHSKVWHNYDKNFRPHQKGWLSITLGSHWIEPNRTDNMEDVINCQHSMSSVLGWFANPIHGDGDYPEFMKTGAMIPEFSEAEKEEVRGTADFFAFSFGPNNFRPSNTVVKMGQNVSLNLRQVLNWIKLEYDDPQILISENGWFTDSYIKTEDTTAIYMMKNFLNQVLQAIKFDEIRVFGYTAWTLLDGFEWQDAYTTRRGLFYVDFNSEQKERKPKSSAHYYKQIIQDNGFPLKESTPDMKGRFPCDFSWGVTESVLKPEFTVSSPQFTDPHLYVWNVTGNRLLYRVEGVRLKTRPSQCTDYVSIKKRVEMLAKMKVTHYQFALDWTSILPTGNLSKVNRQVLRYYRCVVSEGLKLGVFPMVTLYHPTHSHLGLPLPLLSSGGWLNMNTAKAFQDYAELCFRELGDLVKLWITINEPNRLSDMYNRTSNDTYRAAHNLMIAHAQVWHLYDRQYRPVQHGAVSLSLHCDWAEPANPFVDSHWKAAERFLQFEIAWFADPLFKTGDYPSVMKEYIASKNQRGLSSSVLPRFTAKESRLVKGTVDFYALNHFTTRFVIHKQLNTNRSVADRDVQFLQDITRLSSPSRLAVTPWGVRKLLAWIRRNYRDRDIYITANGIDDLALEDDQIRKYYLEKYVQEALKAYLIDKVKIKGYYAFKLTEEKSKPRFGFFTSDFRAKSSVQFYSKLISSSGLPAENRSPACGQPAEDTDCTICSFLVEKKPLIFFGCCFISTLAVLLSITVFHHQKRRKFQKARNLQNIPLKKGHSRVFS
binder,measurement,value
M70 (FGF19 variant) (ligand) MRDSSPLVHYGWGDPIRLRHLYTSGPHGLSSCFLRIRADGVVDCARGQSAHSLLEIKAVALRTVAIKGVHSVRYLCMGADGKMQGLLQYSEEDCAFEEEIRPDGYNVYRSEKHRLPVSLSSAKQRQLYKNRGFLPLSHFLPMLPMVPEEPEDLRGHLESDMFSSPLETDSMDPFGLVTGLEAVRSPSFEK,"EC50 (pM), ELK1 luciferase reporter in L6 cells transfected with mouse FGFR4 and β-klotho",38.3 pM
same,"Emax (fold potentiation), ELK1 luciferase reporter in L6 cells transfected with mouse FGFR4 and β-klotho",1.85 fold potentiation
